Results: the nanobody polyreactivity screen of Harvey et al. (2022)

Experiment: yeast display, Sf9 membrane polyspecificity reagent, FACS + sequencing; frameworks hold sequencing errors
Procedure, shortened: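 After 36–48 hours of galactose induction, yeast (Saccharomyces cerevisiae BJ5465) displaying a synthetic nanobody library were stained at 4 °C for 1 hour with 10% biotinylated, detergent-solubilized Sf9 membrane reagent. Streptavidin microbeads enriched the stained cells before FACS sorting into low and high (top ~1%) gates on anti-HA and streptavidin fluorescence. Each clone's polyreactivity label reflects its gate of origin.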

Sequence	polyreactivity (PSR sort gate)
QVQLVESGGGLVQAGGSLRLSCSASGSIFKIYAMGWYRQAPGKERELVASITGSGGSTYYADSVKGRFTISRDNAKNTVYLQMNSLKPEDTAVYYCAAAVLGSSKSEVDPDRPEYYYWGQGTQVTVSS	low polyreactivity
QVQLVESGGGLVQAGGSLRLSCSASGSIFRVYGMGWYRQAPGKERELVAAITWSGGSTYYADSVKGRFTISRDNAQNTVYLQMNSLKPEDTAVYYCAARARPRYYRQPYDYLGQGTQVTVSS	high polyreactivity
QVQLVESGGGLVQAGGSLRLSCSASGSIFSNAMGWYRQAPGKERELVAAITGRGGRTYYADSVKGRFTITRDNAKNSVYLQMNSLKPEDTAVYYCARDSPWSSRYRYRAFDYWGQGTQVTVSS	high polyreactivity
QVQLVESGGGLVQAGGSLRLSCSASGSNFYTNAMGWYRQAPGKERELVAVITASGGSTYYADSVKGRFTISRDYAKNTVYLLMNSLKPEDTAVYYCASDPVFNYDYWGQGTQVTVSS	low polyreactivity
QVQLVESGGGLVQAGGSLRLSCSASGSTFAYYTMGWYRQAPGKERELVAAISRSGGSTYYSDSVKGRFTISRDNAKNTVYLQMNSLKPEDTAVYYCAADKHYAVIPYEYWGQVTQVTVSS	high polyreactivity
QVQLVESGGGLVQAGGSLRLSCSASGSTFDTYAMGWYRKAPGKERELVAAISRSGGSTYYADSVKWRFTISRDNAKNTVYLQMNSLKPEDTAVYFCNALSGDLAGDYWGQGTQVTVSS	high polyreactivity
QVQLVESGGGLVQAGGSLRLSCSASGSTFERYAMGWYRQAPGKERELVAAISAIGDSTYYADSVKGRFTISRDNANNTVYLQMNSLKPEDTAVYYCAAKTSDYGYYYWGQGTQVTVSS	high polyreactivity
QVQLVESGGGLVQAGGSLRLSCSASGSTFKYNAKGWYIQETGKEWELVAYITRGGHTNYAVSVKGRFTISRDNAKNTVYLQMNRLKPEDTAVYYCAAVRPSVGFRGAWYPQYDYWGQGTQVTVSS	low polyreactivity
QVQLVESGGGLVQAGGSLRLSCSASGSTFSDNVMGWYRQAPGKERELVAGITRSGGRTYYADSVKGRFTISRDNAKNTVYLQMNSLKPEDTAVYYCAAASSGEYGYWGQGTQVTVSS	low polyreactivity
QVQLVESGGGLVQAGGSLRLSCSASGSTFVVYAMGWSRQAPGKERELVAAISESGSSTYYADSVKGRFTISRDNAKNTVYLQMNSLKPEDTAVYYCNALYYDWHPEYQVIFSDFYYWGQGTQVTVSS	low polyreactivity
QVQLVESGGGLVQAGGSLRLSCSASGSTFWYYAMGWYRKAPGKERELVAAITRGASTNYADSVKGRFTISRDNAKNTVYLQMISLIPEDTAVYYCAAGPARWKGYYWGQGTQVTVSS	high polyreactivity
QVQLVESGGGLVQAGGSLRLSCSASGSTFYLYAMGWYRQAPGKEREFVADISLSGDSTYYADSVKGRFTISRDNAKNTVYLQMNSLKPEDTAVYYCAADVFYPGPWSYEYWGQGTQVTVSS	low polyreactivity
QVQLVESGGGLVQAGGSLRLSCSASGYIFGRNSMGWYRTAHGKERELVAVISSRGSRTYYADSVKGRFTISRDNAKNTVYLQMNSLKPEDTAVYYCNAVLWWDWVYDFYYWGQGNQVTVSS	high polyreactivity
QVQLVESGGGLVQAGGSLRLSCSASGYIYQYNSMGWYRQAPGKERELVAANSRGGRTNYADSVKGRFTISRDNAKNTVYLQMNSLKPEDTEVYYCAAKRPWGYYPWSTQTGDYWGQGTQVTVSS	high polyreactivity
QVQLVESGGGLVQAGGSLRLSCSASRSTFYGNAMGWYRQAPGKERELVAAISSGDITYYADSVKGRFTISRDNAKNTVYLQMNSLKPEDTAVYYCATDYGYSWYDYWGQGTQVTVSS	low polyreactivity
QVQLVESGGGLVQAGGSLRLSCSAYGSIFYGYAMGWYRQAPGKERELVAAITWSGGSTYYADSVKGRFTISRDIAKNTVYLQMNSLKPEDTAVYYCNALWVWYRGSSVRWVGGYDYWGQGTQVTVSS	high polyreactivity
QVQLVESGGGLVQAGGSLRLSCSDSGRTFGGNAMGRYRQAPGKERELVAAISRSGGTTYYADSVKGRFTISRDNAKNTVYLQMNSLKPEDTAVYYCNTRRYGAMYYWGQGTQVTVSS	high polyreactivity
QVQLVESGGGLVQAGGSLRLSCTASGSIFTRNTMGSYRQAPGKERELVAAISRRGGSTDYADSVKGRFTISRDNAKNTVYLQMNSLKPEDTAVYYCAADLGYEYDYWGQGTQVTVSS	high polyreactivity
QVQLVESGGGLVQAGGSLRLSCVASARTFFRYAMGWYRQAPGKERELVADITRGGSTYYADSVKGRFTISRDNAKNTVYLQMNSLKPEDTAVYYCNADGRVQRKYDYWGQGTQVTVSS	high polyreactivity
QVQLVESGGGLVQAGGSLRLSCVASGGIFFHYAMRWYRHARGKERELVAAISISGGSTYSADSVKGRFTISRDNAKNTVYLQMNSLKPEDTAVYYCAARYWVRRKDYWGQGTQVTVSS	low polyreactivity
QVQLVESGGGLVQAGGSLRLSCVASGRIIPCNAMGWYRQAPGKERELVAAISYGGGSTYYADSVKGRFTISRDNAKNTVYLQMNSLKPADTAVYYCAAASSGEYGYWGQGTQVTVSS	low polyreactivity
